According to patent US7632507B2, “Synovial cell protein” (St. Marianna University School of Medicine, priority 2000, dated 2009):

Experiments:
[1] = target: T1, [35S]HA-Synoviolin-HAHA (Homo sapiens, UniProt Q86TM6); experiment: Binding of Synoviolin to SL on nylon membrane with [35S]-labeled probe; settings: protein transferred to nylon membrane, 2 hours at room temperature
T1 construct: Expression of Full-Length Synoviolin Recombinant Protein in E. coli; made in house; host or cells: cell-free in vitro translation (TNT-coupled Translation System, Promega) from pcDNA3-HA-synoviolin-HAHA
T1 sequence (Q86TM6 whole entry E545G): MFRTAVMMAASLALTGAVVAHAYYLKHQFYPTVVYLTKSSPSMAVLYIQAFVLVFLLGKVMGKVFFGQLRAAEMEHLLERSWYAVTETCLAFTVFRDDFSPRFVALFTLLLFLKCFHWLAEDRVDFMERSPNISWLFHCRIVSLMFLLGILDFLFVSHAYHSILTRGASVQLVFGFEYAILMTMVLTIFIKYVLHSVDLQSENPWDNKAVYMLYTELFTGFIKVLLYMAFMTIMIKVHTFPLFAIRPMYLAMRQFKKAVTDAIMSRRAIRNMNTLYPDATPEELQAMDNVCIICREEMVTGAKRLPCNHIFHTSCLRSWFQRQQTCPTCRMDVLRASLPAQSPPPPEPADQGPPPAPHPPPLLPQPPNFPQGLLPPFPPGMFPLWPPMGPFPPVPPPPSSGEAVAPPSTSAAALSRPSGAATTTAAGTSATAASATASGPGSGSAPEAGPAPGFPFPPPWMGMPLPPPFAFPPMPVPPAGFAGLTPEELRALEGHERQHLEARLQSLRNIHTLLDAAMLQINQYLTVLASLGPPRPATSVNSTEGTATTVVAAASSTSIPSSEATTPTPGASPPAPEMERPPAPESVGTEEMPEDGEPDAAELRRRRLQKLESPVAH
Method: The SL cDNA was inserted into a pGEX vector in the same manner as in Example 3 to prepare GST-SL fusion protein, and the GST-SL (500 ng) was applied to 10% SDS-PAGE along with GST (1 μg) as a control. After SDS-PAGE, it was transferred to a nylon membrane by electroblotting. This nylon membrane was denatured for 1 hour at room temperature with 50 mM Tris-HCl (pH 8.0) containing 6M guanidine hydrochloride and 5 mM 2-mercaptoethanol, and regenerated overnight at 4° C. in 50 mM Tris-HCl (pH 8.0) containing 5 mM 2-mercaptoethanol and 0.05% Tween 20. The regenerated nylon membrane was treated with blocking buffer [10 mM Tris-HCl (pH 8.0), 5% skim milk, 0.1% Triton X-100, 150 mM NaCl, 1 mM EDTA, 5 mM MgCl2, 1 mM DTT, 5% glycerol, protease inhibitor (complete, Boehringer Mannheim)] and washed in blocking buffer (same as above, except for 0.5% skim milk). […] This nylon membrane was washed in 10 mM Tris-HCl (pH 8.0), 0.5% skim milk, 0.1% Triton X-100, 150 mM NaCl, 1 mM EDTA, 5 mM MgCl2, 1 mM DTT, and protease inhibitor (complete, Boehringer Mannheim), and its radioactivity was detected with an image analyzer (BAS2000, Fujix). […]

[2] = test system: RA patient-derived synovial cells; experiment: MTT assay of synovial cell hyperplasia; type: cell-based, human; settings: 1 μM, three days of culture, 10%-FCS/DMEM, 37° C., 5% CO2
Method: The RA patient-derived synovial cells prepared in Example 1 were used to prepare 96 well plates so that there were 5×10^3 cells/well, and GST or GST-partial Synoviolin was added to the cell supernatant so that the final concentration became 0.01 to 1 μM. After three days of culture, 3-(4,5-dimethyl-2-thiazolyl)-2,5-diphenyl-2H-tetrazolium bromide (MTT)/PBS was added to the cell supernatant, and it was cultured for 3 hours under conditions of 37° C. and 5% CO2. After culturing, the cell supernatant was removed, crystals of MTT formazan were dissolved with dimethyl sulfoxide, and absorbance measurement was performed (Journal of Immunological Methods, 65, 55, 1983).

[3] = test system: anti-synovial cell anti-serum; experiment: Antibody absorption experiment in Western blotting of cell lysates; type: binding, rabbit; settings: RA patient-derived synovial cells, 2.0 mg/mL
Method: First, the various cells used as specimens were solubilized in 1% NP-40 to prepare cell lysates. Each of the cell lysates was treated with 25 mM Tris-HCl (pH 6.8), 0.25% sodium dodecyl sulfate (SDS), 0.05% mercaptoethanol and 0.1% glycerol, and then separated with 8% SDS polyacrylamide electrophoresis (SDS-PAGE). After SDS-PAGE, protein derived from the various cells was transferred to a nitrocellulose (NC) membrane by electroblotting. On this NC membrane, anti-synovial cell anti-serum was diluted 1000 times with Tris buffered saline (TBS) containing 2.0 mg/mL GST-partial Synoviolin fusion protein and 5% skim milk, and subjected to immune reaction for 60 minutes at room temperature. In addition, as negative controls, an experiment wherein the same antibody solution is reacted with the NC membrane, and an experiment wherein the GST-partial Synoviolin fusion protein in the antibody solution is replaced with GST alone were performed at the same time. After the reaction, the NC membrane was washed with 0.1% Tween 20/TBS, subjected to an immune reaction for 60 minutes at room temperature with horseradish peroxidase (HRP) labeled anti-rabbit IgG antibodies as the secondary antibodies, and washed with 0.1% Tween 20/TBS, and the target antigen was detected by detecting HRP activity. […]

[4] = test system: anti-synovial cell anti-serum; experiment: Antibody absorption in fluorescent immunostaining of synovial cells; type: binding, rabbit
Method: Immunostaining was performed by fixing synovial cells upon glass slides by the ordinary method, and immunostaining was performed using the anti-synovial cell anti-serum of Example 1. A sample subjected to 30-minute blocking with 1% bovine serum albumin (BSA) was allowed to undergo immune reaction for 60 minutes at room temperature with anti-synovial cell anti-serum diluted 100 times with 1% BSA. In addition, along with observation with anti-serum, experiments were also performed using anti-synovial cell antibodies purified from this anti-serum. Purified anti-synovial cell antibodies were prepared by immunoaffinity purification using GST-partial Synoviolin fusion protein as a ligand. The ligand used was a fusion protein expressed after the GST-fusion protein expression vector pGEX-5X-3 containing the 1799 bp synoviolin gene up to No. 1233-3031 of SEQ ID NO: 1 was transformed into BL21. A Glutathione Sepharose column was produced by the method of the Pharmacia Corp, to prepare a GST-partial syno-GS column. As a control for the case where purified anti-synovial cell antibodies were used, an anti-GST antibody obtained by the immunoaffinity purification of anti-serum in the same manner where GST was used as the ligand was used. […]

[5] = test system: anti-synovial cell anti-serum; experiment: Antibody absorption test in synovial tissue staining; type: binding, rabbit; settings: 2.0 mg/mL added to anti-serum
Method: The staining of RA patient-derived synovial tissue was performed by fixing synovial tissue upon glass slides by the ordinary method. A sample subjected to 30-minute blocking with 1% BSA was allowed to undergo immune reaction for 60 minutes at room temperature with anti-synovial cell anti-serum diluted 100 times with 1% BSA. After reaction, the sample was washed with PBS and then allowed to undergo immune reaction using HRP-labeled anti-rabbit IgG antibodies as the secondary antibody. Confirmation of the antigen in the immune reaction with anti-synovial cell anti-serum was performed by the coloring of 3,3′-diaminobenzidine tetrahydrochloride based on HRP activity. In the same manner as in the aforementioned Western blotting, GST-partial Synoviolin fusion protein was used to perform an anti-synovial cell anti-serum absorption test with respect to synovial tissue staining. Tissue staining was performed by adding 2.0 mg/mL of GST-partial Synoviolin fusion protein or GST (2.0 mg/mL) to anti-synovial cell anti-serum.

Molecule | binding to [35S]HA-Synoviolin-HAHA [1] | RA patient-derived synovial cell hyperplasia [2] | immune reaction of anti-synovial cell anti-serum to the 220 kDa protein [3] | immune reaction of anti-synovial cell anti-serum to the approximately 140 kDa and approximately 185 kDa proteins [3] | immune reaction of anti-synovial cell anti-serum with RA patient-derived synovial cells [4] | staining of synovial tissue with anti-synovial cell anti-serum [5]
glutathione S-transferase [GST, reference compound] | not observed | – | – | – | – | –
GST-partial Synoviolin: GST fusion protein of a portion of Synoviolin (cDNA 1799 bp; SEQ ID NO: 1, No. 1233-3031) expressed in E. coli (protein, left off: a dimerising Fc or GST) PPVPPPPSSGEAVAPPSTSAAALSRPSGAATTTAAGTSATAASATASGPGSGSAPEAGPAPGFPFPPPWMGMPLPPPFAFPPMPVPPAGFAGLTPEELRALEGHERQHLEARLQSLRNIHTLLDAAMLQINQYLTVLASLGPPRPATSVNSTEGTATTVVAAASSTSIPSSEATTPTPGASPPAPEMERPPAPESVGTEEMPEDGEPDAAELRRRRLQKLESPVAH | – | significantly suppressed | blocked | partially blocked | blocked | weakened
GST-SL: GST fusion protein of Synoviolin ligand (SL), thought to be the same protein as S1-5 (protein, left off: a dimerising Fc or GST) QDTEETITYTQCTDGYEWDPVRQQCKDIDECDIVPDACKGGMKCVNHYGGYLCLPKTAQIIVNNEQPQQETQPAEGTSGATTGVVAASSMATSGVLPGGGFVASAAAVAGPEMQTGRNNFVIRRNPADPQRIPSNPSHRIQCAAGYEQSEHNVCQDIDECTAGTHNCRADQVCINLRGSFACQCPPGYQKRGEQCVDIDECTIPPYCHQRCVNTPGSFYCQCSPGFQLAANNYTCVDINECDASNQCAQQCYNILGSFICQCNQGYELSSDRLNCEDIDECRTSSYLCQYQCVNEPGKFSCMCPQGYQVVRSRTCQDINECETTNECREDEMCWNYHGGFRCYPRNPCQDPYILTPENRCVCPVSNAMCRELPQSIVYKYMSIRSDRSVPSDIFQIQATTIYANTINTFRIKSGNENGEFYLRQTSPVSAMLVLVKSLSGPREHIVDLEMLTVSSIGTFRTSSVLRLTIIVGPFSF | observed | – | – | – | – | –
